Measurements: article PMC2175090

Target: polymerized MTs purified from the bovine brain (bovine) (UniProt Q6B856)
Experiment: co-sedimentation

Kd: 6 µM
Substance: GST-M1 fusion protein encompassing ACF7's M1 domain (domain or fragment)
